From patent US20120316071A1 (published 2012)
Numbering of substitutions follows the chain as printed. Numbers in names are those of the source.

B1: Fab VH5-51_IGHD5-18*01>3_IGHJ4*01 G100K/G104T G24T/S28R/G35V (H:KT TRV) & V3-4_IGLJ1*01 L92A (Fab, V domains shown)
VH: EVQLVQSGAEVKKPGESLKISCKTSGYRFTSYWIVWVRQMPGKGLEWMGIIYPGDSDTRYSPSFQGQVTISADKSISTAYLQWSSLKASDTAMYYCARRKYSYTYDYFDYWGQGTLVTVSS
VL: QTVVTQEPSFSVSPGGTVTLTCGLSSGSVSTSYYPSWYQQTPGQAPRTLIYSTNTRSSGVPDRFSGSILGNKAALTITGAQADDESDYYCVAYMGSGISYVFGTGTKVTVL
notes: Fab; expressed in E. coli with CH1 (Plasmid A, His6 and Flag tags) and lambda CL (Plasmid E); also called H:KT TRV & L92A
B2: Fab VH5-51_IGHD5-18*01>3_IGHJ4*01 G100K/G104T G24T/S28R/G35V (H:KT TRV) & V3-4_IGLJ1*01 S28A (Fab, V domains shown)
VH: B1 VH
VL: B1 VL with S28A, A92L
notes: Fab; expressed in E. coli with CH1 (Plasmid A, His6 and Flag tags) and lambda CL (Plasmid E); also called H:KT TRV & S28A
B3: Fab VH5-51_IGHD5-18*01>3_IGHJ4*01 G100K/G104T G24T/S28R/G35V (H:KT TRV) & V3-4_IGLJ1*01 T31A (Fab, V domains shown)
VH: B1 VH
VL: B1 VL with T31A, A92L
notes: Fab; expressed in E. coli with CH1 (Plasmid A, His6 and Flag tags) and lambda CL (Plasmid E); also called H:KT TRV & T31A
B4: Fab VH5-51_IGHD5-18*01>3_IGHJ4*01 G100K/G104T G24T/S28R/G35V (H:KT TRV) & V3-4_IGLJ1*01 P35A (Fab, V domains shown)
VH: B1 VH
VL: B1 VL with P35A, A92L
notes: Fab; expressed in E. coli with CH1 (Plasmid A, His6 and Flag tags) and lambda CL (Plasmid E); also called H:KT TRV & P35A
B5: Fab VH5-51_IGHD5-18*01>3_IGHJ4*01 G100K/G104T G24T/S28R/G35V (H:KT TRV) & V3-4_IGLJ1*01 T78E (Fab, V domains shown)
VH: B1 VH
VL: B1 VL with T78E, A92L
notes: Fab; expressed in E. coli with CH1 (Plasmid A, His6 and Flag tags) and lambda CL (Plasmid E); also called H:KT TRV & T78E
B6: Fab VH5-51_IGHD5-18*01>3_IGHJ4*01 G100K/G104T G24T/S28R/G35V (H:KT TRV) & V3-4_IGLJ1*01 V29A (Fab, V domains shown)
VH: B1 VH
VL: B1 VL with V29A, A92L
notes: Fab; expressed in E. coli with CH1 (Plasmid A, His6 and Flag tags) and lambda CL (Plasmid E); also called H:KT TRV & V29A
B7: Fab VH5-51_IGHD5-18*01>3_IGHJ4*01 G100K/G104T G24T/S28R/G35V (H:KT TRV) & V3-4_IGLJ1*01 S32A (Fab, V domains shown)
VH: B1 VH
VL: B1 VL with S32A, A92L
notes: Fab; expressed in E. coli with CH1 (Plasmid A, His6 and Flag tags) and lambda CL (Plasmid E); also called H:KT TRV & S32A
B8: Fab VH5-51_IGHD5-18*01>3_IGHJ4*01 G100K/G104T G24T/S28R/G35V (H:KT TRV) & V3-4_IGLJ1*01 S36A (Fab, V domains shown)
VH: B1 VH
VL: B1 VL with S36A, A92L
notes: Fab; expressed in E. coli with CH1 (Plasmid A, His6 and Flag tags) and lambda CL (Plasmid E); also called H:KT TRV & S36A
B9: Fab VH5-51_IGHD5-18*01>3_IGHJ4*01 G100K/G104T G24T/S28R/G35V (H:KT TRV) & V3-4_IGLJ1*01 Y93A (Fab, V domains shown)
VH: B1 VH
VL: B1 VL with A92L, Y93A
notes: Fab; expressed in E. coli with CH1 (Plasmid A, His6 and Flag tags) and lambda CL (Plasmid E); also called H:KT TRV & Y93A
B10: Fab VH5-51_IGHD5-18*01>3_IGHJ4*01 G100K/G104T G24T/S28R/G35V (H:KT TRV) & V3-4_IGLJ1*01 M94A (Fab, V domains shown)
VH: B1 VH
VL: B1 VL with A92L, M94A
notes: Fab; expressed in E. coli with CH1 (Plasmid A, His6 and Flag tags) and lambda CL (Plasmid E); also called H:KT TRV & M94A
B11: Fab VH5-51_IGHD5-18*01>3_IGHJ4*01 G100K/G104T G24T/S28R/G35V (H:KT TRV) & V3-4_IGLJ1*01 S30A (Fab, V domains shown)
VH: B1 VH
VL: B1 VL with S30A, A92L
notes: Fab; expressed in E. coli with CH1 (Plasmid A, His6 and Flag tags) and lambda CL (Plasmid E); also called H:KT TRV & S30A
B12: Fab VH5-51_IGHD5-18*01>3_IGHJ4*01 G100K/G104T G24T/S28R/G35V (H:KT TRV) & V3-4_IGLJ1*01 S99A (Fab, V domains shown)
VH: B1 VH
VL: B1 VL with A92L, S99A
notes: Fab; expressed in E. coli with CH1 (Plasmid A, His6 and Flag tags) and lambda CL (Plasmid E); also called H:KT TRV & S99A
B13: Fab VH5-51_IGHD5-18*01>3_IGHJ4*01 G100K/G104T G24T/S28R/G35V (H:KT TRV) & V3-4_IGLJ1*01 T78L (Fab, V domains shown)
VH: B1 VH
VL: B1 VL with T78L, A92L
notes: Fab; expressed in E. coli with CH1 (Plasmid A, His6 and Flag tags) and lambda CL (Plasmid E); also called H:KT TRV & T78L
B14: Fab VH5-51_IGHD5-18*01>3_IGHJ4*01 G100K/G104T G24T/S28R/G35V (H:KT TRV) & V3-4_IGLJ1*01 S26A (Fab, V domains shown)
VH: B1 VH
VL: B1 VL with S26A, A92L
notes: Fab; expressed in E. coli with CH1 (Plasmid A, His6 and Flag tags) and lambda CL (Plasmid E); also called H:KT TRV & S26A
B15: Fab VH5-51_IGHD5-18*01>3_IGHJ4*01 G100K/G104T G24T/S28R/G35V (H:KT TRV) & V3-4_IGLJ1*01 Y34A (Fab, V domains shown)
VH: B1 VH
VL: B1 VL with Y34A, A92L
notes: Fab; expressed in E. coli with CH1 (Plasmid A, His6 and Flag tags) and lambda CL (Plasmid E); also called H:KT TRV & Y34A
B16: Fab VH5-51_IGHD5-18*01>3_IGHJ4*01 G100K/G104T G24T/S28R/G35V (H:KT TRV) & V3-4_IGLJ1*01 Y33A (Fab, V domains shown)
VH: B1 VH
VL: B1 VL with Y33A, A92L
notes: Fab; expressed in E. coli with CH1 (Plasmid A, His6 and Flag tags) and lambda CL (Plasmid E); also called H:KT TRV & Y33A
B17: Fab VH5-51_IGHD5-18*01>3_IGHJ4*01 G100K/G104T G24T/S28R/G35V (H:KT TRV) & V3-4_IGLJ1*01 T78V (Fab, V domains shown)
VH: B1 VH
VL: B1 VL with T78V, A92L
notes: Fab; expressed in E. coli with CH1 (Plasmid A, His6 and Flag tags) and lambda CL (Plasmid E); also called H:KT TRV & T78V
B18: Fab VH5-51_IGHD5-18*01>3_IGHJ4*01 G100K/G104T G24T/S28R/G35V (H:KT TRV) & V3-4_IGLJ1*01 S96A (Fab, V domains shown)
VH: B1 VH
VL: B1 VL with A92L, S96A
notes: Fab; expressed in E. coli with CH1 (Plasmid A, His6 and Flag tags) and lambda CL (Plasmid E); also called H:KT TRV & S96A
B19: Fab VH5-51_IGHD5-18*01>3_IGHJ4*01 G100K/G104T G24T/S28R/G35V (H:KT TRV) & V3-4_IGLJ1*01 T53A (Fab, V domains shown)
VH: B1 VH
VL: B1 VL with T53A, A92L
notes: Fab; expressed in E. coli with CH1 (Plasmid A, His6 and Flag tags) and lambda CL (Plasmid E); also called H:KT TRV & T53A
B20: Fab VH5-51_IGHD5-18*01>3_IGHJ4*01 G100K/G104T G24T/S28R/G35V (H:KT TRV) & V3-4_IGLJ1*01 V91A (Fab, V domains shown)
VH: B1 VH
VL: B1 VL with V91A, A92L
notes: Fab; expressed in E. coli with CH1 (Plasmid A, His6 and Flag tags) and lambda CL (Plasmid E); also called H:KT TRV & V91A
B21: Fab VH5-51_IGHD5-18*01>3_IGHJ4*01 G100K/G104T G24T/S28R/G35V (H:KT TRV) & V3-4_IGLJ1*01 S25A (Fab, V domains shown)
VH: B1 VH
VL: B1 VL with S25A, A92L
notes: Fab; expressed in E. coli with CH1 (Plasmid A, His6 and Flag tags) and lambda CL (Plasmid E); also called H:KT TRV & S25A
B22: Fab VH5-51_IGHD5-18*01>3_IGHJ4*01 G100K/G104T G24T/S28R/G35V (H:KT TRV) & V3-4_IGLJ1*01 S52A (Fab, V domains shown)
VH: B1 VH
VL: B1 VL with S52A, A92L
notes: Fab; expressed in E. coli with CH1 (Plasmid A, His6 and Flag tags) and lambda CL (Plasmid E); also called H:KT TRV & S52A
B23: Fab VH5-51_IGHD5-18*01>3_IGHJ4*01 G100K/G104T G24T/S28R/G35V (H:KT TRV) & V3-4_IGLJ1*01 T78K (Fab, V domains shown)
VH: B1 VH
VL: B1 VL with T78K, A92L
notes: Fab; expressed in E. coli with CH1 (Plasmid A, His6 and Flag tags) and lambda CL (Plasmid E); also called H:KT TRV & T78K

Target: T1, Recombinant Human DLL4 (human, UniProt Q9NR61 27-524)
T1 construct: also called delta-like protein 4; rHuman DLL4
Assay: ELISA, DLL4 coated on plate, Fab at 100 nM, absorbance at 450 nm minus blank

Binder	ELISA Signal-blank (100 nM Fab)
B1	0.186
B2	0.478
B3	0.552
B4	0.236
B5	0.217
B6	0.394
B7	0.502
B8	0.38
B9	0.185
B10	0.277
B11	0.344
B12	0.3
B13	0.347
B14	0.395
B15	0.085
B16	0.301
B17	0.34
B18	0.436
B19	0.532
B20	0.606
B21	0.483
B22	0.574
B23	0.48
